{"source": "patent US20100129294A1", "target": "Aβ40 fibrils formed from a synthetic Aβ40 peptide (human)", "assay": "cell-based or functional assay", "data": [{"substance": "nattokinase (from UniProt P35835 107-381) (enzyme)", "values": [{"measurement": "rate of Aβ fibril degradation (37 C, pH 7.4, ThT binding assay)", "result": 0.015, "unit": "s⁻¹"}]}]}
